Assay results taken from patent publication US20250320295A1 (INHIBRX BIOSCIENCES, published 2025).
Substitutions are numbered along the chain they refer to. Numbers in names are those of the source. Each block holds one binder with its values, some of them ahead of it.

Target: T1, Human CD8a (human, UniProt P01732 22-235)
T1 construct: also called CD8α; human CD8a-FL
Assay: flow cytometry, HEK293F cells transfected with human CD8a (citrine+ gate)
Description: Binding of polypeptides comprising a humanized CD8a-binding VHH domain, an Fc region, and, in certain polypeptides, a mutated, attenuated IL-2 fused to the C-terminus of the Fc region, was assessed by flow cytometry on HEK293F cells transiently transfected with a plasmid encoding human CD8α or CD8b chains. […] Complexes or polypeptides that are not labeled “KiH” form homodimers under physiologic conditions. The transfected cells were plated in a 96-well plate at 50,000 cells per well in FACS buffer (PBS, 1% BSA, 0.1% NaN₃, pH 7.4). Test polypeptides were then diluted to 2× the final concentration of 500 nM, and a 6-fold serial dilution was made. FACS buffer with no polypeptide was used as a secondary antibody-only control. Test polypeptides were added to an equal volume of cells, and assay plates were incubated for 30 minutes at 4° C. After washing twice with 150 μL of FACS buffer per well, the cells were resuspended in FACS buffer with a fluorescently-labeled anti-human Fc antibody diluted 1:1000 to detect CD8 binding. Assay plates were incubated at 4° C. for 30 minutes. After one additional wash with 150 μL of FACS buffer, polypeptide bound to CD8 was detected by flow cytometry on cells positive for the transfection marker citrine. Binding was measured on these cell populations as mean fluorescence intensity (MFI) at 647 nm. Flow cytometric detection was performed on an IntelliCyt iQue Screener Plus. The data were plotted and analyzed using GraphPad Prism analysis software.

T1 sequence (P01732 22-235): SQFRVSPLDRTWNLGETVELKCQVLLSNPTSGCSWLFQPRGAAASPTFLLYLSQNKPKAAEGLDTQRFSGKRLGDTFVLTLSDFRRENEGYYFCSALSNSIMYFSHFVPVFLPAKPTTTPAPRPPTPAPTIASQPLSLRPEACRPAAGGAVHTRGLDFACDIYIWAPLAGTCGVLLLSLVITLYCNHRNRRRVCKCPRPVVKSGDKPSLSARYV

Kd: 5.23 nM
B1: hzB7v21-xELL-P329G-KiH Fc-IL-2 mutant (Fc fusion)
chain 1: QVQLVQSGGGEVQPGGSLRLSCAASGFTFDDYAMSWVRQAPGKGLEWVSTITWDAEGTDYAESVKGRFTISRDNAKNTVYLQMSSLRAEDTAVYYCAKGSPELQYDTWGQGTLVTVKPDKTHTCPPCPAPGGPSVFLFPPKPKDTLMISRTPEVTCVVVDVSHEDPEVKFNWYVDGVEVHNAKTKPREEQYNSTYRVVSVLTVLHQDWLNGKEYKCKVSNKALGAPIEKTISKAKGQPREPQVCTLPPSRDELTKNQVSLSCAVKGFYPSDIAVEWESNGQPENNYKTTPPVLDSDGSFFLVSKLTVDKSRWQQGNVFSCSVMHEALHNRYTQKSLSLSPG
chain 2: B1 chain 1 with C244Y, S249C, S261W, A263L, V302Y, R330H
notes: Knob-in-hole heterodimer: VHH on the N-terminus of each Fc, mutant IL-2 only on the knob Fc; not shown: mutant, attenuated IL-2 fused to the C-terminus of the knob Fc

Bmax (MFI): 1.52e+07 MFI | Kd: 4.55 nM
B2: hzB7v26-xELL-P329G-KiH Fc-IL-2 mutant (Fc fusion)
chain 1: B1 chain 1 with E56G
chain 2: B1 chain 1 with E56G, C244Y, S249C, S261W, A263L, V302Y, R330H
notes: as for B1

Bmax (MFI): 1.45e+07 MFI | Kd: 3.18 nM
B3: hzB7v27-xELL-P329G-KiH Fc-IL-2 mutant (Fc fusion)
chain 1: B1 chain 1 with D59Y
chain 2: B1 chain 1 with D59Y, C244Y, S249C, S261W, A263L, V302Y, R330H
notes: as for B1

Kd: 7.5 nM
B4: hzB7v19-xELL-P329G-KiH Fc-IL-2 mutant (Fc fusion)
chain 1: B1 chain 1 with Q6E
chain 2: B1 chain 1 with Q6E, C244Y, S249C, S261W, A263L, V302Y, R330H
notes: as for B1

Bmax (MFI): 1.45e+07 MFI | Kd: 3.28 nM
B5: hzB7v25-xELL-P329G-KiH Fc-IL-2 mutant (Fc fusion)
chain 1: B1 chain 1 with D54S
chain 2: B1 chain 1 with D54S, C244Y, S249C, S261W, A263L, V302Y, R330H
notes: as for B1

Kd: 4.48 nM
B6: hzB7v20-xELL-P329G-KiH Fc-IL-2 mutant (Fc fusion)
chain 1: B1 chain 1 with Q1E
chain 2: B1 chain 1 with Q1E, C244Y, S249C, S261W, A263L, V302Y, R330H
notes: as for B1

Bmax (MFI): 1.28e+07 MFI | Kd: 6.54 nM
B7: hzB7v24-xELL-P329G-KiH Fc-IL-2 mutant (Fc fusion)
chain 1: B1 chain 1 with D30S, D31S
chain 2: B1 chain 1 with D30S, D31S, C244Y, S249C, S261W, A263L, V302Y, R330H
notes: as for B1

Bmax (MFI): 1.37e+07 MFI | Kd: 2.84 nM
B8: hzB7v28-xELL-P329G-KiH Fc-IL-2 mutant (Fc fusion)
chain 1: B1 chain 1 with E62A, S63P
chain 2: B1 chain 1 with E62A, S63P, C244Y, S249C, S261W, A263L, V302Y, R330H
notes: as for B1

Bmax (MFI): 1.43e+07 MFI | Kd: 3.9 nM
B9: hzB7v23-xELL-P329G-KiH Fc-IL-2 mutant (Fc fusion)
chain 1: B1 chain 1 with D31S
chain 2: B1 chain 1 with D31S, C244Y, S249C, S261W, A263L, V302Y, R330H
notes: as for B1
